Test results: the nanobody polyreactivity screen of Harvey et al. (2022)

Test: yeast display, Sf9 membrane polyspecificity reagent, FACS + sequencing; frameworks hold sequencing errors
Procedure, shortened: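 Synthetic nanobody libraries on Saccharomyces cerevisiae BJ5465 were galactose-induced for 36–48 hours, stained 1 hour at 4 °C with 10% biotinylated, detergent-solubilized Sf9 membrane reagent and enriched on streptavidin microbeads. FACS then separated cells into low and high (top ~1%) gates by anti-HA (expression) and streptavidin (reagent binding) fluorescence. Genes were colony-PCR amplified, MiSeq 2 × 250 sequenced and CDR-length filtered. A clone's polyreactivity label is that of its gate of origin.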

| Sequence | polyreactivity (PSR sort gate) |
| --- | --- |
| QVQLVESGGGLVQAGGSLRLSCAASGRIFRWYAMGWYRQAPGKERELVAAISKSGGTTNYADSVKGRFTISRDNAKNTVYLQMNSLKPEDTAVYYCAARRYPYGGYGYRYDYWGQGTQVTVSS | high polyreactivity |
| QVQLVESGGGLVQAGGSLRLSCAASGRIFRWYAMGWYRQAPGKERELVATISSSGRTNYADSVKGRFTISRDNAKNTVYLQMNSLKPEDTAVYYCAAEYYLRYRYDYWGQGTQVTVSS | high polyreactivity |
| QVQLVESGGGLVQAGGSLRLSCAASGRIFRYNAMGWYRQAPGKEREFVAAITQSGGSTYYADSVKGRFTISRDNAKNTVYLQMNRLKPEDTAVYYSAADRFYWTYLNYQFLTDYWGQGTQVNVSS | high polyreactivity |
| QVQLVESGGGLVQAGGSLRLSCAASGRIFRYNAMGWYRQAPGKERELVAAISTSGTRTFYADSVKGRFTISRDNAKNTVYLQMNSLKPEDTAVYYCNKVAGPGKLGTYYYWGQGTQVTVSS | high polyreactivity |
| QVQLVESGGGLVQAGGSLRLSCAASGRIFRYNAMGWYRQAPGKERELVAAISWGGGSTYYADSVKGRFTISRDNAKNTVYLQMNSLKPEDTAVYYCAVTSGSSFRMGYWGQGTQVTVSS | high polyreactivity |
| QVQLVESGGGLVQAGGSLRLSCAASGRIFRYNAMGWYRQAPGKERELVAAITSGTGTNYADSVKGRFTISRDNAKNTVYLQMNSLKPEDTAVYYCAAQPGQAWWSTDHDDYWGQGTQVTVSS | low polyreactivity |
| QVQLVESGGGLVQAGGSLRLSCAASGRIFRYNAMGWYRQAPGKERELVADISKRGGSTYYADSVKGRFTISRDNAKNTVYLQMNSLKPEDTAVYYCNARNTYYVVANDYWGQGTQVTVSS | high polyreactivity |
| QVQLVESGGGLVQAGGSLRLSCAASGRIFRYNAMGWYRQAPGKERELVATIRWGGGGTYYADSVKGRFTISRDNAKNSVYLLMNSLKPEDTAVYYCNAKRYSPGYNYWGQGTQVTVSS | high polyreactivity |
| QVQLVESGGGLVQAGGSLRLSCAASGRIFRYNAMGWYRQAPGKERELVATISKSGGSTYYADSVKGRFTISRDNANYTVYLQMNSLKPEDTAVYYCAASYHPWLADYGYWGQGTQVSVSS | low polyreactivity |
| QVQLVESGGGLVQAGGSLRLSCAASGRIFRYNAMVWYRQAPGKERELVAAITWSGTSTYYADSLKGRFTLSRDNAKNTVYLHMNSLKPEDTAVYYCNADRVDRELFTFDYWGQGTQVTVSS | high polyreactivity |
| QVQLVESGGGLVQAGGSLRLSCAASGRIFRYYAMGWYRPATGKERELVAGITRGGTTNYSDSVKGRFTISRDNAKNTVYLQMNSLKPEDTAVYYCAADTRRGIIGYDYWGQGTQVTVSS | high polyreactivity |
| QVQLVESGGGLVQAGGSLRLSCAASGRIFRYYAMGWYRQAAGKERELVAAIRYRSGGTSYADSVKGRFTISRDNAKNTVYLQMNSLKPEDTAVYYCNADKRLRGHGYDYWGQGTQVTVSS | high polyreactivity |
| QVQLVESGGGLVQAGGSLRLSCAASGRIFRYYAMGWYRQAPGKEREFVAAISSNTGTGTYYADSVKGRFTISRDNAKNTVYLQMNSLKPEDTAVYYCNAKYKYRGYYWGQGTQVTVSS | high polyreactivity |
| QVQLVESGGGLVQAGGSLRLSCAASGRIFRYYAMGWYRQAPGKERELDAGITGRGGRTYYADSVKGRFTISRDNAKNTVYLQMNSLKPEDTAVYYCAATVSPSYDYWGQGTQVTVSS | high polyreactivity |
| QVQLVESGGGLVQAGGSLRLSCAASGRIFRYYAMGWYRQAPGKERELVAAIDSVGSTYYADSVKGRFTISRDNAKNTVYLQMNSLKPEDTAVYYCNARVYTFPTRYDYWGQGTQVTVSS | high polyreactivity |
| QVQLVESGGGLVQAGGSLRLSCAASGRIFRYYAMGWYRQAPGKERELVAAIRIRGGSTSYADSVKGRFTISRDNAKNTVYLQMNSLKPEDTAVYYCNKRDKVTYSYDYWGQGTQVTVSS | high polyreactivity |
| QVQLVESGGGLVQAGGSLRLSCAASGRIFRYYAMGWYRQAPGKERELVAAISGNGGRTSYADSVKGRFTISRDTAKNTVYLQMNSLNPEDTAVYYCAKYPVQSDYLFDHWGQGTQVTVSS | high polyreactivity |
